Publication PMC8476643 (Nature Communications, 2021)

What was measured:
[1] = target: T1, SARS-CoV receptor-binding domain (RBD) (SARS-CoV (GenBank NC_004718.3), UniProt P59594); experiment: SPR; conditions: both partners purified
T1 construct: also called SARS-CoV RBD; source: High Five cells (baculovirus, pAcgp67B), purified from the medium (Ni-sepharose)

[2] = target: T2, SARS-CoV-2 receptor-binding domain (RBD) (SARS-CoV-2 Wuhan-Hu-1 (GenBank …, UniProt P0DTC2)); experiment: cell-based or functional assay
[3] = target: T1, SARS-CoV receptor-binding domain (RBD); experiment: SPR; conditions: both partners purified; remark: listed apart in the source
[4] = target: T2, SARS-CoV-2 receptor-binding domain (RBD); experiment: SPR; conditions: both partners purified
[5] = target: T2, SARS-CoV-2 receptor-binding domain (RBD); experiment: SPR; conditions: both partners purified; remark: listed apart in the source

Binder | Kd [1] | Fig. S4: IC50 of neutralisation, LV-SARS-CoV-2 WT [2] | Kd [3] | koff [3] | kon [3] | Kd [4] | koff [4] | kon [4] | Kd [5]
6D6 monoclonal antibody (antibody, V domains shown, also called mAb 6D6; source: mouse hybridoma, ascites, purified (protein A agarose); copies: 2 + 2) VH: EVQLQQSGAELVKPGASVKLSCTTSGFNIIDTYMHWVKQRPEEGLEWIGGIDPVNGNSEYDPKFQDKATITADTSSNTAYLHLSRLTSEDTAVYYCASAHYYGSSSSFPYWGQGTLVTVSA VL: DIVMTQSQKFMSTSVGDRVSVTCKASQNVGTHVAWYQQKPGQSPKALIYSASYRYSGVPDRFTGSGVGTDFTLTITNVQSEDLAEYFCQQYNSYFTFGSGTKLEIK | 3.72 nM | 10.9 µg/mL | 0.37 nM | 6.3e-06 s⁻¹ | 17000 M⁻¹ s⁻¹ | 0.01 nM | 1.5e-06 s⁻¹ | 115000 M⁻¹ s⁻¹ | –
7D6 monoclonal antibody (antibody, V domains shown, also called mAb 7D6; source: mouse hybridoma, ascites, purified (protein A agarose); copies: 2 + 2) VH: EVQLQQSGAELVRPGASVKLSCTASGFNIKDTYIHWVKQRPEQGLEWIGRIDPGDGDTEYDPSFQGKATITADTSSNTAYLELSSLTSEDTAVYYCTRFYDYVDYGMDYWGQGTSVTVSS VL: DIQMTQSPASLSASVGETVTITCRASGNIHNYLAWYQQKQGKSPQLLVYNAKTLADGVPSRFSGSGSGTQYSLKINSLQPEDFGSYYCQHFWSTPPWTFGGGTKLEVK | – | 5.98 µg/mL | 0.03 nM | 1.7e-06 s⁻¹ | 58500 M⁻¹ s⁻¹ | < 0.01 nM | 1.1e-06 s⁻¹ | 180000 M⁻¹ s⁻¹ | 0.00265 nM
